Source: patent US20220119518A1 (KUMHO HT, published 2022)
Numbering of substitutions follows the chain as printed. Values belong to the binder of their own block, whether it stands above or below them.

Tests used:
[1] = molecular target: T1, Antigen CD66c (CEACAM6; Sino Biological, Inc.) (UniProt P40199 35-320); experiment: ELISA, CEACAM6 coated 100 ng/well, antibody at 0.17 ng/ml
T1 construct: Bought antigen, coated on the ELISA plate; construct not described; also called CECACAM6 (CD66c) antigen; CD66c antigen
T1 sequence (looked up): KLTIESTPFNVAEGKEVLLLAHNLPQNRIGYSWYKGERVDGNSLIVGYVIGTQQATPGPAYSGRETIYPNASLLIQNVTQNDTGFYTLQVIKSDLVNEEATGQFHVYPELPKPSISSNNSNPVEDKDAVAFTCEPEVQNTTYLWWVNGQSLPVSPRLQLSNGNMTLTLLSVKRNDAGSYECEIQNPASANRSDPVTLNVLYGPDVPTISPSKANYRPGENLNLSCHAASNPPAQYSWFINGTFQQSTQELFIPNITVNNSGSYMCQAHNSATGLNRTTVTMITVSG
Description: (§1) Antigen CD66c (CEACAM6; Sino Biological, Inc.) and CEACAM1 antigen (Sino Biological, Inc.) were coated on a 96-well plate at a rate of 100 ng per well and then blocked. The primary antibody was diluted 3-fold from 10 ug/ml and bound at 37° C. for 1 hour. […] goat anti-Human Ig-HRP conjugate (Jackson ImmunoResearch) as a secondary antibody was diluted 1:10,000 and incubated at 37° C. for 30 minutes. The washing was carried out at three times between each step, and the TMB reaction was performed, stopped with 1N H₂SO₄ solution at the same amount of TMB solution (100 ul) and then OD value was measured at 450 nm.
(§2) As a result of the experiment, the binding affinities to CD66c antigen of the five kinds of recombinant humanized antibodies selected from among 96 kinds of recombinant humanized antibodies are shown in FIG. 4a, Table 12, FIG. 4b and Table 13. FIG. 4a and Table 12 show the binding capacity of the antibodies to CECACAM6 CD66c) antigen, and FIG. 4b and Table 13 are the results for the CEACAM1 (CD66a) antigen.

[2] = molecular target: T1, Antigen CD66c (CEACAM6; Sino …); experiment: ELISA, CEACAM6 coated 100 ng/well, antibody at 4.57 ng/ml
Description: as §1, §2

[3] = molecular target: T2, CEACAM1 antigen (Sino Biological, Inc.) (UniProt P13688 35-428); experiment: ELISA, CEACAM1 coated 100 ng/well, antibody at 0.51 ng/ml
T2 construct: Bought antigen, coated on the ELISA plate; construct not described; also called CEACAM1 (CD66a) antigen; CD66a
T2 sequence (looked up): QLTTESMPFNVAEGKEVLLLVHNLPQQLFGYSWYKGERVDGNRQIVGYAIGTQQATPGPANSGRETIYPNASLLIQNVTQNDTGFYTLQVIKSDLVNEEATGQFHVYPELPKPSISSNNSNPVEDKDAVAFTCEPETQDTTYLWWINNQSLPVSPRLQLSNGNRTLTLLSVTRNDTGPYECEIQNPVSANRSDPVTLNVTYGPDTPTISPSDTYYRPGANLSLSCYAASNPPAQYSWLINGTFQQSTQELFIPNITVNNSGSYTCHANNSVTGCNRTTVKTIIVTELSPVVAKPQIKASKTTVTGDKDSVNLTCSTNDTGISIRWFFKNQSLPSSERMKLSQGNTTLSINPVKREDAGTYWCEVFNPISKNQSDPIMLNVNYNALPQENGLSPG
Description: as §1

[4] = molecular target: T2, CEACAM1 antigen (Sino Biological, Inc.); experiment: ELISA, CEACAM1 coated 100 ng/well, antibody at 4.57 ng/ml
Description: as §1

[5] = molecular target: T1, Antigen CD66c (CEACAM6; Sino …); experiment: ELISA, CEACAM6 coated 100 ng/well, antibody at 13.72 ng/ml
Description: as §1, §2

[6] = molecular target: T2, CEACAM1 antigen (Sino Biological, Inc.); experiment: ELISA, CEACAM1 coated 100 ng/well, antibody at 13.72 ng/ml
Description: as §1

[7] = molecular target: T2, CEACAM1 antigen (Sino Biological, Inc.); experiment: ELISA, CEACAM1 coated 100 ng/well, antibody at 41.15 ng/ml
Description: as §1

[8] = molecular target: T2, CEACAM1 antigen (Sino Biological, Inc.); experiment: ELISA, CEACAM1 coated 100 ng/well, antibody at 370.37 ng/ml
Description: as §1

[9] = molecular target: T1, Antigen CD66c (CEACAM6; Sino …); experiment: ELISA, CEACAM6 coated 100 ng/well, antibody at 3333.33 ng/ml
Description: as §1, §2

[10] = molecular target: T2, CEACAM1 antigen (Sino Biological, Inc.); experiment: ELISA, CEACAM1 coated 100 ng/well, antibody at 1111.11 ng/ml
Description: as §1

B1: recombinant humanized anti-CD66c antibody Protein ID 3058 (Vk8 + VH11) (antibody, human IgG1, V domains shown)
VH: QVQLVQSGAEVKKPGASVKISCKASGYSFTDYTMHWVKQAPGQNLEWIGLINPFGGSTSYAQKFKGRVTMTRDTSTNTAYMELSRLRSDDTAVYYCVRGDPVRHYYALAYWGQGTLVTVSS
VL: DIQMTQSPSTLSASVGDRVTITCRASENVYGTLNWYQRKPGKAPKLLIYGATNLADGMPSRFSGSGSGTEYTLTISSLQPDDFATYYCQNVLSAPYTFGGGTKLEIK
notes: also called hu 3058; #86
OD 450 nm [1]: 0.37 OD 450 nm | OD 450 nm [2]: 0.74 OD 450 nm | OD 450 nm [3]: 0.04 OD 450 nm | OD 450 nm [4]: 0.05 OD 450 nm | OD 450 nm [5]: 1.06 OD 450 nm | OD 450 nm [6]: 0.05 OD 450 nm | OD 450 nm [7]: 0.07 OD 450 nm | OD 450 nm [8]: 0.12 OD 450 nm | OD 450 nm [9]: 3.18 OD 450 nm | OD 450 nm [10]: 0.19 OD 450 nm

B2: recombinant humanized anti-CD66c antibody Protein ID 3007 (Vk7 + VH6) (antibody, human IgG1, V domains shown)
VH: QVQLVQSGAEVKKPGASMKISCKASGYSFTDYTMNWVKQAPGQNLEWIGLINPFHGGTVSNQRFKVKATLTVDVSTNTAYMELSRLRSDDTAVYYCVRGDPVRHYYALAYWGQGTLVTVSS
VL: B1 VL with R24G, M58V
notes: also called hu 3007; #43
OD 450 nm [1]: 0.53 OD 450 nm | OD 450 nm [2]: 1.02 OD 450 nm | OD 450 nm [3]: 0.11 OD 450 nm | OD 450 nm [4]: 0.27 OD 450 nm | OD 450 nm [5]: 1.64 OD 450 nm | OD 450 nm [6]: 0.46 OD 450 nm | OD 450 nm [7]: 0.66 OD 450 nm | OD 450 nm [8]: 0.92 OD 450 nm | OD 450 nm [9]: 3.24 OD 450 nm | OD 450 nm [10]: 1.06 OD 450 nm

B4: recombinant humanized anti-CD66c antibody Protein ID 2938 (Vk5 + VH7) (antibody, human IgG1, V domains shown)
VH: B2 VH with K38R, N44G
VL: B1 VL with R24G, N34A, M58V, T69R
notes: also called hu 2938
OD 450 nm [1]: 0.3 OD 450 nm | OD 450 nm [2]: 0.65 OD 450 nm | OD 450 nm [3]: 0.05 OD 450 nm | OD 450 nm [4]: 0.05 OD 450 nm | OD 450 nm [5]: 1.15 OD 450 nm | OD 450 nm [6]: 0.06 OD 450 nm | OD 450 nm [7]: 0.07 OD 450 nm | OD 450 nm [8]: 0.14 OD 450 nm | OD 450 nm [9]: 3.27 OD 450 nm | OD 450 nm [10]: 0.21 OD 450 nm

Second part, the binder after the results:

OD 450 nm [1]: 0.41 OD 450 nm | OD 450 nm [2]: 0.91 OD 450 nm | OD 450 nm [3]: 0.1 OD 450 nm | OD 450 nm [4]: 0.27 OD 450 nm | OD 450 nm [5]: 1.37 OD 450 nm | OD 450 nm [6]: 0.43 OD 450 nm | OD 450 nm [7]: 0.61 OD 450 nm | OD 450 nm [8]: 0.8 OD 450 nm | OD 450 nm [9]: 2.95 OD 450 nm | OD 450 nm [10]: 1.17 OD 450 nm
B3: recombinant humanized anti-CD66c antibody Protein ID 3043 (Vk8 + VH6) (antibody, V domains shown)
VH: B2 VH
VL: B1 VL
notes: also called hu 3043; #71

OD 450 nm [1]: 0.4 OD 450 nm | OD 450 nm [2]: 0.8 OD 450 nm | OD 450 nm [3]: 0.1 OD 450 nm | OD 450 nm [4]: 0.28 OD 450 nm | OD 450 nm [5]: 1.15 OD 450 nm | OD 450 nm [6]: 0.51 OD 450 nm | OD 450 nm [7]: 0.82 OD 450 nm | OD 450 nm [8]: 1.13 OD 450 nm | OD 450 nm [9]: 3.41 OD 450 nm | OD 450 nm [10]: 1.21 OD 450 nm
B5: anti-CD66c chimeric antibody 8F5 (antibody, human IgG1, V domains shown)
VH: EVQLQQSGPELVKPGASMKISCKASGYSFTDYTMNWVKQSHGKNLEWIGLINPFHGGTVSNQRFKVKATLTVDVSSNTAYMELLSLTSDDSAVYYCVRGDPVRHYYALAYWGQGTSVTVSS
VL: DIQMTQSPASLSASVGETVTITCGASENVYGTLNWYQRKQGKSPQLLIYGATNLADGMSSRFSGSGSGRQYSLKISSLHPDDVATYYCQNVLSAPYTFGGGTKLEII
notes: also called chimeric 8F5; chi 8F5
